Series [1] concerns the target AtCAD-H protein (cinnamyl alcohol dehydrogenase) (Arabidopsis thaliana, UniProt F4K152). Kind of series: Enzyme activity of purified AtCAD-H protein, backward reaction (Lineweaver-Burk). The conditions noted are these: substrate coniferyl alcohol, NADPH^+ in place of NADPH, Tris-HCl pH 9.3, 37° C. It is filed as biochemical. The procedure: (§1) In order to identify whether the isolated protein has the cinnamyl alcohol dehydrogenase function related to lignin biosynthesis, the enzyme activity in forward reaction was measured using coniferaldehyde as a substrates. Also, the enzyme activity in backward reaction was measured using coniferyl alcohol as a substrates so as to identify whether the enzyme also involves in backward reaction or not.
(§2) The enzyme activities were measured at 405 nm using a microplate reader (Bio-rad Backman Microplate Reader) adjusted at 37° C. according to the method of Mitchell et al. (Mitchell et al. Planta, 208: 31-47, 1998). In […] of the reaction solution for the measurement of the enzyme activity in forward reaction, 100 mM Tris-buffer (Tris-HCl pH 9.3), […], and 2-3 μg of the protein purified in Example 2-2 were contained. The conditions of the reaction solution for the measurement of the enzyme activity in backward reaction is the same as that of the reaction solution of forward reaction, except that 100 mM NADPH^+ was contained in place of 100 mM NADPH. […]
(§3) Meanwhile, the enzyme activity of the purified protein was suitable for Michaelis-Menten kinetics for 100 mM coniferyl alcohol, that is, the substrate of backward reaction. The reaction velocities were measured according to variation of substrate concentration, and represented in a Lineweaver-Burk's plot (see FIG. 2b). […]

Substrate in series [2]: COc1cc(/C=C/CO)ccc1O
Described as above. It is filed as biochemical, Arabidopsis thaliana. The conditions noted are these: other: backward reaction, substrate coniferyl alcohol, NADPH^+ in place of NADPH, Tris-HCl pH 9.3, 37° C. The protocol: as §1, §2, §3

Substrate in series [3]: COc1cc(/C=C/C=O)ccc1O
Kind of series: Enzyme activity of purified AtCAD-H protein, forward reaction (Lineweaver-Burk). It is filed as biochemical, Arabidopsis thaliana. The conditions noted are these: other: forward reaction, substrate coniferaldehyde, NADPH, Tris-HCl pH 9.3, 37° C., 405 nm. The procedure: as §1, §2
The enzyme activity of the purified protein was suitable for Michaelis-Menten kinetics for 100 mM coniferaldehyde, that is, the substrate of forward reaction. The reaction velocities were measured according to variation of substrate concentration, and represented in a Lineweaver-Burk's plot (see FIG. 2a).

For two molecules, Vmax and Km results are on record in US20080005813A1, “Polypeptide Having Function of Cinnamyl Alcohol Dehydrogenase, Polynucleotide Encoding the Polypeptide and Those Uses” (GENOMINE, INC., priority 2005, published 2008).

With `COc1cc(/C=C/CO)ccc1O` [coniferyl alcohol], in series [1], the Vmax came out at 0.102.

B1: AtCAD-H protein (cinnamyl alcohol dehydrogenase) (Arabidopsis thaliana) (protein)
chain: MANSGEGKVVCVTGASGYIASWLVKFLLSRGYTVKASVRDPSDPKKTQHLVSLEGAKERLHLFKADLLEQGSFDSAIDGCHGVFHTASPFFNDAKDPQAELIDPAVKGTLNVLNSCAKASSVKRVVVTSSMAAVGYNGKPRTPDVTVDETWFSDPELCEASKMWYVLSKTLAEDAAWKLAKEKGLDIVTINPAMVIGPLLQPTLNTSAAAILNLINGAKTFPNLSFGWVNVKDVANAHIQAFEVPSANGRYCLVERVVHHSEIVNILRELYPNLPLPERCVDENPYVPTYQVSKDKTRSLGIDYIPLKVSIKETVESLKEKGFAQF
In the case of B1, the Km (commonly the substrate concentration at which the rate is half of its maximum) in series [2] stood at 374 µM; in series [3], 19.8 µM.
